Experimental data from the nanobody polyreactivity screen of Harvey et al. (2022).

Assay: yeast display, Sf9 membrane polyspecificity reagent, FACS + sequencing; frameworks hold sequencing errors
Method in brief: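 Nanobodies from a synthetic yeast display library (Saccharomyces cerevisiae BJ5465), induced 36–48 hours with galactose, were stained 1 hour at 4 °C with 10% biotinylated, detergent-solubilized Sf9 membrane reagent, enriched on streptavidin microbeads, then FACS-sorted. Anti-HA (expression) and streptavidin (reagent binding) fluorescence set low and high (top ~1%) gates. Polyreactivity labels come from the gate of origin. Genes were colony-PCR amplified, MiSeq 2 × 250 sequenced and filtered by CDR length.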

Sequence	polyreactivity (PSR sort gate)
QVQLVESGGGLVQAGGSHRLTCAASGITFTVNAMGWYRQAPRKERELVAAISNDGSTYYADSVKGRFTISRDYAKNTVYLQMNSLKPEDTAVYYCAADTWDDFGPYGYDYWGQGTQVTVSS	low polyreactivity
QVQLVESGGGLVQAGGSILLSCAASGFIFLYYAMGWYRQAPGKERELVADISRGADTKYADTVKGRFTISRDNAKNTVYLQMNSLKPEDTAVYYCATVITTFWFPYPGVELGYWGQGTQVNVSS	low polyreactivity
QVQLVESGGGLVQAGGSIRLSCAASGFIFFSNAMGWYRQAPGKERELVAVIDRATSTYYADSVKGRFTISRDNAKNTVYLQMNSLKPEDTAVYYCNADGEEVYDFNYFLSFKGDYWGQGTQVTVSS	low polyreactivity
QVQLVESGGGLVQAGGSIRLSCAASGFTFKGNVMGWYRQAPGKERELVAAISRSGGRTYYADSVKGRFTISRDNAKNTVYLQMNSLKPEDTAVYYCAAVVQSSEPVEYDYWGQGTQVTVSS	high polyreactivity
QVQLVESGGGLVQAGGSIRLSCAASGGTFKTYVMGWNRQAPVKERELVAAINTSGTSTYYADSVKGRFTISRDNAKIKVYLQMNSLKPEDTAVYYCATRYRYTYYWGQGTQVTVSS	high polyreactivity
QVQLVESGGGLVQAGGSIRLSCAASGINFYGNAMGWYRQAPGKETELVAAISWSGSSTYYADSVKGRFTISRDNAKNTVYFQMLSLKPEDTAVYYCKKATSSVRYLIYYYWGQGTQVTVSS	high polyreactivity
QVQLVESGGGLVQAGGSIRLSCAASGLTFRWYAMGWYRQAPGKESELVAAISSGGRTYYADSVKGRFTISRDNAKNTVYLLMNSLKPEDTAVYYSNKRTLDYGFGSYGREYWGQGTQVTVSS	high polyreactivity
QVQLVESGGGLVQAGGSIRLSCAASGNTFRWYAMGWYRQAPGKEREFVAAISSSGGSTYYADSVKGRFTISRDNAKNTVYLQMNSLKPEDTAVYYCTAASVTRHVSFATDYEYWGQGTQVTVSS	high polyreactivity
QVQLVESGGGLVQAGGSIRLSCAASGRIFGRNAMGWYRQAPGKERELVAAISSSGGTYYADSGKGRFTISRDNAKNTVYLQMNSLKPEDTAVYYCNGRVRTQQRWVDYWGQGTQVTVSS	high polyreactivity
QVQLVESGGGLVQAGGSIRLSCAASGRIFNHNSMGWYRQAPGKERELVAAITKSGGSTYYADSVKGRFTISRDNAKNTVYFQINSLITEDTAVYYCATRLWKIPGAMYYWGQGTQVTVSS	high polyreactivity
QVQLVESGGGLVQAGGSIRLSCAASGRIFVRNAMGWYRQAPGKEREMVAAISWSSGGTYYADSVKGRFTISRDNAKNTVYLQMNSLKPEDTAVYYCNADPSRAGDYWGQGTQVTVSS	low polyreactivity
QVQLVESGGGLVQAGGSIRLSCAASGRTFDGNALGWYRKAPGKERELVAAITSGGSTNYAYSVKGRFTISRDNAKNTVYVQRNSLKPEDTAVYYCAAERWYGYSHSDFGYWGQGTQVTVSS	high polyreactivity
QVQLVESGGGLVQAGGSIRLSCAASGRTFGYYAMGWYRQAPGKERELVAAISWSGGRTYYADSVKGRFTISRDNAKNTVYLQMNSLKPEDTAVYYCAAQTAGFWYDYWGQGTQVTVSS	high polyreactivity
QVQLVESGGGLVQAGGSIRLSCAASGRTLPEYVMGWYRQAPGKERELVAAITTAGSTNYADSVKGRFTISRDNAKNTVYLQINCLKPEDTAVYYCAGTTRSRGFRDIDYWGQGTQVTVSS	low polyreactivity
QVQLVESGGGLVQAGGSIRLSCAASGSTISHNAMGWYRQAPGKERELVAAITRGDSTNYADSVKGRFTNTRDNAKNTVYLEMNSLKPEDTAVYYCNANKWYRYDYWGQGTQVTVSS	low polyreactivity
QVQLVESGGGLVQAGGSIRLSCDASGNTFCTYAMGWYRQAPGKERELVATSAKRAGSTYYADSVKGRFTISRDNAKNTVFLQLKCLKPEDTAFYDCARDAYSVYYYVFLHWEYDYWGQVTQVTVSS	high polyreactivity

Sequence	polyreactivity (PSR sort gate)
QVQLVESGGGLVQAGGSIRLSSAASGFTFYPYMGWYRQAPVKERELVATITWIGDDTYYADSVKGRFTISRDNAKNTVYLQMNSLKPEDTAVYYCNTDVDDTLYYSPMDYWGQGTQVTVSS	low polyreactivity
QVQLVESGGGLVQAGGSLCLSCAASGRTFIRNAMGWYRPAPGKERELVAAINSGGITNYADSVKGRFTISRDNAKNTVYLQMNSLKPEDTALYYCNARQVLYGLYLRAYPYEYWGQGTQVTVSS	low polyreactivity
QVQLVESGGGLVQAGGSLGLSCAASGFTVYRYAMGWSRQAPGKERELVARTYYADSVKRRFTISRDNAKNTVYLQMNSLKPEDTAVYYCNIDLELEYRYEYWGQGTQVTVSS	low polyreactivity
QVQLVESGGGLVQAGGSLGLSCAASGRIFGVYAMGWYRQAPGTERELVAAIWSGGSTYYADSVKGRFTISRDNAKNTVYLQMNSLKPEDTAVYYCAADDAYSHRSLYSHNDYWGQGTQVTVSS	low polyreactivity
QVQLVESGGGLVQAGGSLGLSCAASGSIFGYYALGWYRPAPGKERELVAAISWSDGSTYYADSVKGRFTISRDNAKNTVYLQMNSLKPEDTAVYDCAARFTPYITSADGHYDYWGQGTQVTVSS	low polyreactivity
QVQLVESGGGLVQAGGSLGLSCAASGSIFSDYAMGWYRQATGKERELVAAITQSGGSTYADSVKGRFTISRDNAKNTVYLQMISLKPEDTAVYYCAADEVPGFGYPPYPWFDYWGQGTQVTVSS	low polyreactivity
QVQLVESGGGLVQAGGSLGLSCAASGSTFRSYAMGWYRQAPGKERELVAAISSAGTTYYADSVKGRFTISRDNAKNTVYLQMNSLKPEDTAVYYCAAKYSYYTYAGDGGLFSWSYGYWGQGTQVTVSS	low polyreactivity
QVQLVESGGGLVQAGGSLGLSCAAYGSIFVGNAMGWYRQAPGNERELVAAICRSGGITYYADSVKGRFTISRDNAKNTVYLQMNSLKPEDTAVYYCAARHRYYYQYRSDYWGQGTQVTVSS	high polyreactivity
QVQLVESGGGLVQAGGSLGLTCAASGSIFYGYAMAWYRPAPGKERELVAAISSSGGNTYYADSVKGRFTISRDNAKNTVYLQMNSLKPEDTAVYYCNKVYYQVKYDYWGQGTQVSVSS	low polyreactivity
QVQLVESGGGLVQAGGSLHLSCAASGFTFDGYTMGWYRQAPGKERELVATITTGGSTYYADSVKGRFTISRDNAKNTVYLQMNSLKPEDTAVYYCAADYRGVPYIKWPKDFEYWGQGTQVTVSS	low polyreactivity
QVQLVESGGGLVQAGGSLHLSCAASGRIFGKYAMGWYRQAPGKEREFVAAIRSSDGNTYYADSVKGRFTISRDNAKNTVYLQMNSLKPEDTAVYYCAARGTLWTYGYWGQGTQVTVSS	high polyreactivity
QVQLVESGGGLVQAGGSLLLICAASGSTFYLNAMGWYRQAPGKERELVAAITGRSGSTYYADSVKVRFTISRDNAKNTVYLQMNSLKPEDTAVYYCAADYSPWRSDFDYWGQGTQVTVSS	low polyreactivity
QVQLVESGGGLVQAGGSLLLSCAAARIIFKYNAMGWYRQAPGKDRELVARITARGGRTNYADSVKGRFTISRDNAKHTVYLQMNSLKPEDTAVYYCAKKLRGWHTIITDYDYWGQGTQVTVSS	low polyreactivity
QVQLVESGGGLVQAGGSLLLSCAASGFIFAGYAMGWYRQAPGKERELVAPISKRGGTTYYADSVKGRFTISRDNAKNTVYLQMNSLKPEDTAVYYCNAKRTYRVVWASSYEYDYWGQGTQVTVSS	high polyreactivity
QVQLVESGGGLVQAGGSLLLSCAASGFTFRYYAMGWYRQAPGTERELVAAISSGGNTRYADSVKGRFTISRDNAKITVYLQLNSLKPEDTAVYYCARRPGAPRESYDYWGQGTQVTVSS	high polyreactivity
